For one molecule, Kd results are on record in doi:10.1101/2023.06.19.545293 (2023).

Experiment [1] deals with T1, ZnF domain of A. thaliana SPL5 (Ser60-Leu127) (A. thaliana, UniProt Q9S758 60-127).
T1 chain: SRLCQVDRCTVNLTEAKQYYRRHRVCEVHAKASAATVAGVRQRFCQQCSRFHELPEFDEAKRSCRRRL
Kind of experiment: ITC; 25 °C, repeat 1.

Experiment [2] concerns the target T1, ZnF domain of A. thaliana SPL5 …. As to the kind of experiment: ITC; 25 °C, repeat 2.

B1: SAP05 (mature, Ala33-Lys135) of Aster Yellows phytoplasma strain Witches Broom (natural protein)
chain: APNEEFVGDMRIVNVNLSNIDILKKHETFKKYFDFTLTGPRYNGNIAEFAMIWKIKNPPLNLLGVFFDDGTRDDEDDKYILEELKQIGNGAKNMYIFWQYEQK
With B1, the equilibrium dissociation constant (Kd) was 510 nM in experiment [1] and 388 nM in experiment [2].
